From patent US20050070001A1, “Xylosyltransferase and isoforms thereof” (priority 1999, published 2005)

Legend:
recombinant XT-I = target: T1, recombinant XT-I (Homo sapiens, UniProt Q86Y38); assay: XT activity assay of recombinant XT-I expressed in CHO-K1 cells with different acceptors and with heparin; format: biochemical; details: for XT Activitiy pCG227-XT: recombinant XT-I from CHO-K1 cells, immunoprecipitated on beads, named acceptor, without heparin, n.d. = not detected (detection limit 20 μU/l)
T1 construct: polyhistidine leader of vector pcDNA4/HisMax-TOPO (own knowledge of the vector); made in house; host or cells: CHO-K1, transient transfection with pCG227-XT-I
T1 sequence (Q86Y38 148-959): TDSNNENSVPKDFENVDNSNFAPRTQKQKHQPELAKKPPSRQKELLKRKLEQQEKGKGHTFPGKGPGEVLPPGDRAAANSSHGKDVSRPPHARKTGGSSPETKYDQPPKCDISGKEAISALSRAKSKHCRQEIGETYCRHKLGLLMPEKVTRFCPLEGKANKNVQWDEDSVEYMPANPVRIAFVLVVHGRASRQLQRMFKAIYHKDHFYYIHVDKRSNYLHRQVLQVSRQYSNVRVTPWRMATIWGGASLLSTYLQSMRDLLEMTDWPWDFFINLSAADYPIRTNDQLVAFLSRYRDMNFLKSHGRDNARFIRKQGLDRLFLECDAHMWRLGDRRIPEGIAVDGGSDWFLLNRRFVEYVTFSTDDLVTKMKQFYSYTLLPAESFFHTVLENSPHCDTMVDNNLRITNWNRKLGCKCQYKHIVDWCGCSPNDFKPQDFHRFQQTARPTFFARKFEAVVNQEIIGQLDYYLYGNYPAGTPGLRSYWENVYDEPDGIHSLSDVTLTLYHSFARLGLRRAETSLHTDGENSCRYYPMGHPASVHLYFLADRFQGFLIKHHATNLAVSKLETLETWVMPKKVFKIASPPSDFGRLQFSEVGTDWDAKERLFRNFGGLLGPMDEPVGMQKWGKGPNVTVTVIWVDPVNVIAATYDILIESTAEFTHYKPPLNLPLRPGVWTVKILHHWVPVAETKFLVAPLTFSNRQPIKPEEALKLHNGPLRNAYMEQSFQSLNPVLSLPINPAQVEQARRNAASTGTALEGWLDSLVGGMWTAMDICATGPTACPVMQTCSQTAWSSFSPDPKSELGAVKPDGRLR
Source text: The degenerate primers PFF-sense and Lysc-inv1 which were designed upon the amino acid sequence of proteolytic cleaved peptides of human XT-I were used in a PCR reaction with first strand cDNA of placenta poly(A)^+ mRNA as template. […] To clone the complete coding sequence of the novel cDNA, the RACE strategy was employed. The cDNA finally obtained was 3608 bp (FIG. 8A) and contained a single open reading frame encoding a protein of 865 amino acids with a molecular mass of 97.000. The 3′-untranslated region is 850 bp and a 5′-untranslated region of 149 bp was identified with an in-frame stop codon upstream of the ATG codon. […] No detectable XT activity was recovered by the affinity purification from a control transfection sample. The substrate specificity of the recombinant XT-I was similar to that of the XT-I isolated from human body fluids and cell culture supernatants.
Determination of XT activity. Determination of XT activity is based on the incorporation of [14C]-D-xylose into the recombinant bikunin according to a previously described method (Brinkmann et al., 1997, J. Biol. Chem., 272, 11171-11175). For analysis of the substrate specificity of the recombinant xylosyltransferases synthetic peptides containing the XT recognition sequence were used as acceptor. The reaction mixture for the assay contained, in a total volume of 100 μl: 50 μl of XT solution, 25 mM 4-morpholineethanesulfonic acid (pH 6.5), 25 mM KCl, 5 mM KF, 5 MM MgCl2, 5 mM MnCl2, 1.0 μM UDP-[^14C]-D-xylose, and 1.5 μM of the synthetic peptides. After incubation for 75 min at 37° C., the reaction mixtures were placed on discs (25 mm diameter) of Immobilon-AV membrane, which immobilizes even small peptides by covalent links (Pfund & Bourdage, 1990, Mol. Immunol. 27, 495-502), and allowed to dry. It was then washed for 10 min with 10% trichloroacetic acid and three times with 5% trichloroacetic acid solution. Incorporated radioactivity was determined by liquid scintillation counting.
Transfection and transient expression of XT. For construction of a eukaryotic expression vector a DNA fragment including the known coding sequence of XT-I cDNA was amplified by PCR using XT_Exp1L 5′-[…]-3′ and XT_Exp3U 5′-[…]-3′ as primers and placenta first-strand cDNA (Clontech) as template. The 2450 bp fragment obtained was cloned into the vector pcDNA4/HisMax-TOPO (Invitrogen) resulting in the fusion of XT-I to the Xpress epitope. The plasmid pCG227-XT-I was then transiently transfected into CHO-K1 cells. The coding region of the XT-II cDNA was amplified by PCR using the primers AB_Exp9U 5′-AAAGGAAGGCAGAGGAAGC-3′ and AB_Exp3L 5′-ACCCCTCCACTGT-CTGTAAG-3′ and placenta first-strand cDNA as template. The obtained 2440 bp DNA fragment was cloned into the expression vector pcDNA4/HisMax-TOPO resulting in the fusion of XT-II to the aminoterminal Xpress epitope. The plasmid termed pCG226-XT-II was transiently transfected into CHO-K1 cells. 2×10^5 cells precultured for 1 day in a 35 mm diameter cell culture dish were transfected with 2 μg of plasmid DNA and 6 μl of Fugene 6 transfection reagent (Roche, Mannheim, Germany). For determination of transfection efficiency CHO-K1 cells were transfected with 2 μg of the control plasmid pcDNA4/HisMax-TOPO-lacZ. 48 h after transfection the cell culture medium was harvested. Protein G agarose beads (Sigma, Deisenhofen, Germany) and mouse anti-Xpress monoclonal antibody (Invitrogen) were added to the cell culture supernatant and incubated at 4° C. for 1 h. […]

XT [1] = assay: Effect of protamine chloride added to the XT assay solution; format: biochemical, human
Source text: UDP-D-xylose: proteoglycan core protein β-D-xylosyltransferase can be isolated and purified from JAR choriocarcinoma cell culture. The isolated protein according to the invention is a single stranded polypeptide with a molecular weight of 120.000. The protein was enzymatically cleaved and eleven peptide fragments were sequenced by Edman degradation (see Examples). XT is present only in very small amounts in animal tissues but unlike other glycosyltransferases, more than 90% of XT is enriched in the medium of cultured cells. The highest secretion of XT activity was measured in JAR choriocarcinoma cell culture, in which sternal cartilage chondrocytes and 21 different human cell lines were examined. To produce a highly enriched XT solution for the isolation of XT, JAR choriocarcinoma cells were adapted to hollow fiber culture conditions using a novel bioreactor (TECNOMOUSE) and Ultradoma-PF medium without serum addition as nutrient. For purification of XT a combination of classic separation methods and new affinity matrices was employed. Therefore, a heparin matrix was used as an affinity ligand for the XT. […]
Determination of XT activity. […] Incorporated radioactivity was determined by liquid scintillation counting.

XT [2] = details: cited from earlier work
[3] = Storage stability of purified XT enzyme activity; format: physicochemical; details: purified XT after protamine affinity chromatography, stored at −75° C.
Method: Step 4: Affinity chromatography on protamine chloride The product of step 3 was desalted and concentrated using dia- and ultrafiltration. […] Additional proteins were eluted with buffer A containing low NaCl concentrations. Enzyme activity was eluted at approximately 0.15 M NaCl (FIG. 1C). The enzyme activity was stable for at least 6 months at −75° C.
Step 4: Affinity chromatography on protanine chloride—XT-containing solution from step 3 was desalted as described above and concentrated to 5 ml by ultrafiltration with YM1 cellulose membranes. The ultrafiltration product was passed through a 0.2 μm filter. 100 μl of the filtrate was loaded onto a protamine chloride—POROS column (4.6×50 mm) equilibrated with buffer A. The flow rate was 10 ml/min. The column was washed with 10.0 ml of buffer A, and the adsorbed fraction was eluted with the same buffer containing NaCl by a stepwise increase of the NaCl concentration: 6.6 ml buffer A/0.04 M NaCl; 6.6 ml buffer A/0,06 M NaCl; 6.6 ml buffer A/0.23 M NaCl followed by a linear gradient of 0.23-1.20 M NaCl (4.2 ml) in buffer A. Fractions of 6.0 ml were collected, assayed for XT activity and evaluated by SDS-PAGE. Cyclic chromatography was repeated 50 times. The purified enzyme was collected, concentrated to 1.0 ml using ultrafiltration techniques and stored at −75° C.

QEEGSGGGGQK [Bikunin peptide QEEGSGGGGQK, synthetic bikunin homologous peptide used as XT acceptor]
XT Activitiy pCG227-XT (recombinant XT-I): 463 μU/l

SENEGSGMAEQK [L-APLP2 peptide SENEGSGMAEQK, synthetic L-APLP2 homologous peptide used as XT acceptor]
XT Activitiy pCG227-XT (recombinant XT-I): 515 μU/l

TENEGSGLTNIK [L-APP peptide TENEGSGLTNIK, synthetic L-APP homologous peptide used as XT acceptor]
XT Activitiy pCG227-XT (recombinant XT-I): 492 μU/l

heparin
inhibition of enzyme activity of recombinantly expressed XT-I (recombinant XT-I; addition of 250 U of heparin): completely inhibited

protamine chloride
effect on XT activity (XT [1]): increased XT activity

B1: Recombinant bikunin: recombinant bikunin, the inhibitory component of human inter-α-trypsin inhibitor; XT acceptor protein (protein, UniProt P02760 206-352, looked up)
Inter-alpha-trypsin inhibitor …: AVLPQEEEGSGGGQLVTEVTKKEDSCQLGYSAGPCMGMTSRYFYNGTSMACETFQYGGCMGNGNNFVTEKECLQTCRTVAACNLPIVRGPCRAFIQLWAFDAVKGKCVLFPYGGCQGNGNKFYSEKECREYCGVPGDGDEELLRFSN
modifications: Inter-alpha-trypsin inhibitor light chain recombinant
notes: XT acceptor protein
XT Activitiy pCG227-XT (recombinant XT-I): 2854 μU/l | Km (XT [2]; enriched XT preparation from conditioned cell culture supernatant of human chondrocytes, read-out: Michaelis-Menten (Km) constant for in vitro xylosylation): 22 µM | decrease of Km in comparison to deglycosylated core protein from bovine cartilage (XT [2]; enriched XT preparation from human chondrocytes): 9 fold

B2: UDP-D-xylose:proteoglycan core protein β-D-xylosyltransferase (protein, UniProt Q86Y38 1-959, looked up)
Xylosyltransferase 1: MVAAPCARRLARRSHSALLAALTVLLLQTLVVWNFSSLDSGAGERRGGAAVGGGEQPPPAPAPRRERRDLPAEPAAARGGGGGGGGGGGGRGPQARARGGGPGEPRGQQPASRGALPARALDPHPSPLITLETQDGYFSHRPKEKVRTDSNNENSVPKDFENVDNSNFAPRTQKQKHQPELAKKPPSRQKELLKRKLEQQEKGKGHTFPGKGPGEVLPPGDRAAANSSHGKDVSRPPHARKTGGSSPETKYDQPPKCDISGKEAISALSRAKSKHCRQEIGETYCRHKLGLLMPEKVTRFCPLEGKANKNVQWDEDSVEYMPANPVRIAFVLVVHGRASRQLQRMFKAIYHKDHFYYIHVDKRSNYLHRQVLQVSRQYSNVRVTPWRMATIWGGASLLSTYLQSMRDLLEMTDWPWDFFINLSAADYPIRTNDQLVAFLSRYRDMNFLKSHGRDNARFIRKQGLDRLFLECDAHMWRLGDRRIPEGIAVDGGSDWFLLNRRFVEYVTFSTDDLVTKMKQFYSYTLLPAESFFHTVLENSPHCDTMVDNNLRITNWNRKLGCKCQYKHIVDWCGCSPNDFKPQDFHRFQQTARPTFFARKFEAVVNQEIIGQLDYYLYGNYPAGTPGLRSYWENVYDEPDGIHSLSDVTLTLYHSFARLGLRRAETSLHTDGENSCRYYPMGHPASVHLYFLADRFQGFLIKHHATNLAVSKLETLETWVMPKKVFKIASPPSDFGRLQFSEVGTDWDAKERLFRNFGGLLGPMDEPVGMQKWGKGPNVTVTVIWVDPVNVIAATYDILIESTAEFTHYKPPLNLPLRPGVWTVKILHHWVPVAETKFLVAPLTFSNRQPIKPEEALKLHNGPLRNAYMEQSFQSLNPVLSLPINPAQVEQARRNAASTGTALEGWLDSLVGGMWTAMDICATGPTACPVMQTCSQTAWSSFSPDPKSELGAVKPDGRLR
notes: enzyme (EC 2.4.2.26) purified from JAR choriocarcinoma cell culture supernatant, MW 120.000
time for which enzyme activity was stable [3]: at least 6 months
